Patent US20170037124A1 (Regeneron, published 2017)

T1: human ANGPTL8 peptide (hANGPTL8 peptide, SEQ ID NO: 337) (human)
T1 construct: also called N-terminal region ANGPTL8 peptide
T1 peptide: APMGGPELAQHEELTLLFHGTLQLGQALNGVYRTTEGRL

T2: peptide from the N-terminal coiled-coil region of human ANGPTL4 (hANGPTL4 peptide, SEQ ID NO: 339) (human)
T2 peptide: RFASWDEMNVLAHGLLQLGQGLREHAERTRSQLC

T3: peptide from the N-terminal coiled-coil region of human ANGPTL3 (hANGPTL3 peptide, SEQ ID NO: 338) (human)
T3 construct: also called hANGPTL3 shift peptide
T3 peptide: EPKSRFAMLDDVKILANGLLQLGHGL

T4: human ANGPTL8 expressed with C-terminal mouse IgG2a Fc tag (hANGPTL8-mFc; SEQ ID NO: 340) (human)
T4 construct: also called Angiopoietin-like protein 8
T4 chain: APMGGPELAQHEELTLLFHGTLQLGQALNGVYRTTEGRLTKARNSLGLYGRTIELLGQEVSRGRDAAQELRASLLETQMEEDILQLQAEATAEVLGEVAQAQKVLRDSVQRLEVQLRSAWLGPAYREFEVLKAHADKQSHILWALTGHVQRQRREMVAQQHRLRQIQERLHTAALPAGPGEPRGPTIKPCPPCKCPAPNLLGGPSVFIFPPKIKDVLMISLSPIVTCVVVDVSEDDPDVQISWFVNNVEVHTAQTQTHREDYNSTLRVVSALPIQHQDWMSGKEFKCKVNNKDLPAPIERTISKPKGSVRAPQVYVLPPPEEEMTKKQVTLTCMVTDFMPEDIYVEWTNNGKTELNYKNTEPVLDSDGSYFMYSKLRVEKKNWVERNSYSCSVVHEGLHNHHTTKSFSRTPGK

T5: monkey ANGPTL8 expressed with C-terminal mouse IgG2a Fc tag (MfANGPTL8-mFc; SEQ ID NO: 341) (cynomolgus monkey)
T5 construct: also called cynomolgus monkey ANGPTL8
T5 chain: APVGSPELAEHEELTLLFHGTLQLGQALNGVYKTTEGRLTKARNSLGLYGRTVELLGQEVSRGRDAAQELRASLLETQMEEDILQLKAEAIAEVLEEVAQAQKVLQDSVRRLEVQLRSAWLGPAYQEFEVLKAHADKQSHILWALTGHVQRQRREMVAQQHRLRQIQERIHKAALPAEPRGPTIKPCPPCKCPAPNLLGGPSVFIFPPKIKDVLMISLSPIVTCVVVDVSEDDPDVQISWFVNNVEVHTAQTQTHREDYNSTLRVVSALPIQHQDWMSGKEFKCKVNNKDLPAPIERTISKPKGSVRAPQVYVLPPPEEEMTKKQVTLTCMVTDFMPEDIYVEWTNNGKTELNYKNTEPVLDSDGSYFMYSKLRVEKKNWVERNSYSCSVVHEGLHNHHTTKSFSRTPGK

B1: H4H15346P (antibody, human IgG4, V domains shown)
VH: EVQLVESGGGLVQPGGSLRLSCAASGFTFSNYAMSWVRQAPGKGLEWVSTISDTGGSTYYADSVKGRFALSRDNSRNTLYLQMNSLRAEDTAVYYCAKEGPPDYWGQGTLVTVSS
VL: EIVLTQSPATLSLSPGERATLSCRTSQSVSIYLAWYQQKPGQAPRLLIYDASKRATGIPARFSGRGSGTDFTLTISSLEPEDFAVYYCQQRSNWPLTFGQGTRLEIK
notes: H4H prefix: human IgG4 Fc
B2: H4H15369P2 (antibody, human IgG4, V domains shown)
VH: EVQLVESGGGLVQPGGSLRLSCVGTGFTFSNYAMSWVRQAPGKGLEWVSGISGRSSGTFYADSVKGRFTISRDNSQNTLYLQMNSLGAEDTAVYYCAKVSRYNWDYVPFDFWGQGTLVTVSS
VL: not shown
notes: H4H prefix: human IgG4 Fc
B3: H4H15343P (antibody, human IgG4, V domains shown)
VH: QVQLVESGGGVVQPGRSLRLSCAASGFTFSSYGMHWVRQAPGKGLEWVAVISYAGSNKYYADSVKGRFTISRDNSKNTLYLQMNGLRAEDTAVYYCAKDPYGDYEGVLDYWGQGTLVTVSS
VL: DIQMTQSPSSLSASVGDRVTITCQASQDISNYLNWYQQKPGKAPKLLIYDASNLETGVPSRFSGSGSGTDFTFTISSLQPEDIATYYCQQYDHLPITFGQGTRLEIK
notes: H4H prefix: human IgG4 Fc
B4: H4H15334P (antibody, human IgG4, V domains shown)
VH: QVQLQESGPGLVKPSQTLSLTCTVSGGSINSGGYYWNWIRQHPGKGLEWIGYIYYSGSTYFNPSLKSRVTISIDTSKNQFSLKLSSVTAADTAVYYCAREGIYAFDYWGQGTLVTVSS
VL: DIQMTQSPSSLSASVGDRVTITCRASQGIRNDLGWYQQKPGKAPKRLIYSASSLQSGVPSRFGGSGSGTEFTLTISSLQPEDFATYYCLQHNSYPWTFGQGTKVEIK
notes: H4H prefix: human IgG4 Fc

Target: T1, human ANGPTL8 peptide (hANGPTL8 …)
Assay: SPR, captured mAb, 500 nM peptide, 25C
Method: (§1) The assay utilized a format where ANGPTL8 antibodies were captured on the sensor surface and peptides were injected over the antibody surface. Peptides from the N-terminal coiled-coil region of human ANGPTL3 (hANGPTL3 peptide, SEQ ID NO: 338) and human ANGPTL4 (hANGPTL4 peptide, SEQ ID NO: 339) were also included as controls. Also included was a control antibody (H4H268P from US2011/0159015A1) that binds to the ANGPTL4 peptide and a negative isotype control antibody. All binding studies were performed in 10 mM HEPES pH 7.4, 150 mM NaCl, 3 mM EDTA, and 0.05% v/v Surfactant Tween-20 (HBS-ET running buffer) at 25° C. The HCA sensor surface was derivatized via amine coupling to a monoclonal mouse anti-human Fc antibody (GE, # BR-1008-39), and to this surface was captured approximately 1000 RU of each ANGPTL8 antibody or control antibody. Peptide stock solutions were diluted in HBS-ET running buffer to 500 nM and injected over the antibody-captured surfaces for 4 minutes at a flow rate of 30 μL/minute followed by the dissociation of bound peptide in HBS-ET running buffer for 10 minutes.
(§2) Dissociative half-lives (t½) were calculated from kd as: […]

500 nM hANGPTL8 peptide Bound (RU)	Binder	binding result
0	B1	no binding (tested: <9 RU at 500 nM peptide)
0	B2	no binding (tested: <9 RU at 500 nM peptide)
0	B3	no binding (tested: <9 RU at 500 nM peptide)
0	B4	no binding (tested: <9 RU at 500 nM peptide)

Target: T2, peptide from the N-terminal coiled-coil …
Assay: SPR, captured mAb, 500 nM peptide, 25C
Method: as §1, §2

500 nM hAngPTL4 peptide Bound (RU)	Binder	binding result
0	B1	no binding (tested: <9 RU at 500 nM peptide)
0	B2	no binding (tested: <9 RU at 500 nM peptide)
0	B3	no binding (tested: <9 RU at 500 nM peptide)
1	B4	no binding (tested: <9 RU at 500 nM peptide)

Target: T3, peptide from the N-terminal coiled-coil …
Assay: SPR, captured mAb, 500 nM peptide, 25C
Method: as §1, §2

500 nM hANGPTL3 peptide Bound (RU)	Binder	binding result
0	B1	no binding (tested: <9 RU at 500 nM peptide)
0	B2	no binding (tested: <9 RU at 500 nM peptide)
0	B3	no binding (tested: <9 RU at 500 nM peptide)
0	B4	no binding (tested: <9 RU at 500 nM peptide)

Target: T6, anti-mFc (AMC) Octet biosensor, blank
T6 construct: Sensor without captured protein, used as blank; also called Blank AMC Sensor
Assay: BLI Octet, blank AMC sensor, 100 nM mAb, 25C
Method: (§3) Binding of ANGPTL8 antibodies to human and monkey ANGPTL8 proteins was investigated using Bio-layer Interferometry with an Octet HTX biosensor platform (ForteBio, A Division of Pall Life Sciences). All experiments were performed at 25° C. in 10 mM HEPES pH 7.4, 150 mM NaCl, 0.05% v/v Surfactant Tween-20, and 1 mg/ml BSA with the reaction multiwell plate agitated at 1000 rpm. Approximately 1.6 nm of human ANGPTL8 produced with a C-terminal mouse IgG2a Fc tag (hANGPTL8-mFc; SEQ ID NO: 340) or cynomolgus monkey ANGPTL8 produced with a C-terminal mouse IgG2a Fc tag (MfANGPTL8-mFc; SEQ ID NO: 341) was captured onto anti-mFc (AMC) Octet biosensors by submerging the sensors into wells containing 10 μg/mL of each protein for 4 minutes. Under the same conditions a negative control protein with the same mFc tag (hLDLR-mFc) was also coupled to the AMC sensor. All four sensors, […] and one blank, were then submerged into wells containing 100 nM of different ANGPTL8 monoclonal antibodies or an isotype control for 4 minutes.

mAb Binding Response (nm)	Binder
-0.01	B1
0.01	B2
0.01	B3
0.03	B4

Target: T4, human ANGPTL8 expressed with C-terminal …
Assay: BLI Octet, captured antigen, 100 nM mAb, 25C
Method: as §3

mAb Binding Response (nm)	Binder
0.07	B1
0.14	B2
0.17	B3
0.05	B4

Target: T7, negative control protein with the same mFc tag (hLDLR-mFc) (human; mouse, UniProt P01130 22-788, limits assumed)
T7 construct: also called Irrelevant control; not shown: mouse IgG2a Fc tag (same mFc tag as hANGPTL8-mFc)
Assay: BLI Octet, captured antigen, 100 nM mAb, 25C
Method: as §3

T7 sequence (P01130 22-788 limits assumed): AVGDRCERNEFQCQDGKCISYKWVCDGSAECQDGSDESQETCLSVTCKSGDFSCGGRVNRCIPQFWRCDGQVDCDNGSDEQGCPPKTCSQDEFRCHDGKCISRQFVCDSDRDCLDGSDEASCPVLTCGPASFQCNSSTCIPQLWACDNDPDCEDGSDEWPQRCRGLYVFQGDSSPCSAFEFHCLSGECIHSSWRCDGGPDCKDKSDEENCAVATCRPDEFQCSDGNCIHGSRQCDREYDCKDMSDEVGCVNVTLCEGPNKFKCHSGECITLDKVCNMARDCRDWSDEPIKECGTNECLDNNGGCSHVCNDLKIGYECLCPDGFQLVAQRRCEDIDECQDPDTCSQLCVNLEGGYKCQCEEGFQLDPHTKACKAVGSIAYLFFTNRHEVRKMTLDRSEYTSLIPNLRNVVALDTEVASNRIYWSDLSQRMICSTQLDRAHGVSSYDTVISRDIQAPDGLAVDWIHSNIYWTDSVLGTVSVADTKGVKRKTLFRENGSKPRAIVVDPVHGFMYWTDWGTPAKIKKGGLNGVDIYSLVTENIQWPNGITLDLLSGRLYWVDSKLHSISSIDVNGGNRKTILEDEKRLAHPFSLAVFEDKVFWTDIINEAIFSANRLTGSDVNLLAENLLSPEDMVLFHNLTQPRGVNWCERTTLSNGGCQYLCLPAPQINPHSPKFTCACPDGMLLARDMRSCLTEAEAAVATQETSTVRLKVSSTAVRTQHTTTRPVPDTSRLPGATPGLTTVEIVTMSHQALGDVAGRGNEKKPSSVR

mAb Binding Response (nm)	Binder
0	B1
0	B2
-0.01	B3
0	B4

Target: T5, monkey ANGPTL8 expressed with …
Assay: BLI Octet, captured antigen, 100 nM mAb, 25C
Method: as §3

mAb Binding Response (nm)	Binder
0.01	B1
0.17	B2
0.2	B3
0.01	B4
